# US20260167712A1, “INHIBITORY ANTIBODIES AGAINST GLUT1” (ICOSAGEN CELL FACTORY OÜ, priority 2022, published 2026)
# Entries after “also recorded” stand apart in the source; their conditions may differ.
# T1: SLC2A1 pseudotyped VLPs (UniProt P11166 1-492)
# T1 chain: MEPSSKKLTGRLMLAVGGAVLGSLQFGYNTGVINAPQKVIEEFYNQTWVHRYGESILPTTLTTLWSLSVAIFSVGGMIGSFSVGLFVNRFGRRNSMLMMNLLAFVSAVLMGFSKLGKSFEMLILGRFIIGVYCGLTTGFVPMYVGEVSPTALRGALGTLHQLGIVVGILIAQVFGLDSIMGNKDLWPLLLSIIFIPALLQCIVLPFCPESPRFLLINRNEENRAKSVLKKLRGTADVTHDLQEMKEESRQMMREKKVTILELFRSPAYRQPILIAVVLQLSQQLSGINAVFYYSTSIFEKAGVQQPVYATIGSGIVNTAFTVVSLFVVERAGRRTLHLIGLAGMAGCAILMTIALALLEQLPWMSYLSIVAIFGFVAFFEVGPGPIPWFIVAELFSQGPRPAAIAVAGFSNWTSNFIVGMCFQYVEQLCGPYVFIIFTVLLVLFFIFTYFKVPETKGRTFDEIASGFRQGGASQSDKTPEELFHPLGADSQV
# T2: HEK-293-ALL cells transfected with human SLC2A1 (Homo sapiens, UniProt P11166)
# T2 construct: expressed in transfected cells; host or cells: HEK-293-ALL
# T2 sequence (P11166 1-492): T1 chain
# T3: SLC2A1 pseudotyped VLPs (Homo sapiens, UniProt P11166)
# T3 sequence (P11166 1-492): T1 chain
# T4: SLC2A2 pseudotyped VLPs (Homo sapiens, UniProt P11168)
# T4 sequence (P11168 1-524): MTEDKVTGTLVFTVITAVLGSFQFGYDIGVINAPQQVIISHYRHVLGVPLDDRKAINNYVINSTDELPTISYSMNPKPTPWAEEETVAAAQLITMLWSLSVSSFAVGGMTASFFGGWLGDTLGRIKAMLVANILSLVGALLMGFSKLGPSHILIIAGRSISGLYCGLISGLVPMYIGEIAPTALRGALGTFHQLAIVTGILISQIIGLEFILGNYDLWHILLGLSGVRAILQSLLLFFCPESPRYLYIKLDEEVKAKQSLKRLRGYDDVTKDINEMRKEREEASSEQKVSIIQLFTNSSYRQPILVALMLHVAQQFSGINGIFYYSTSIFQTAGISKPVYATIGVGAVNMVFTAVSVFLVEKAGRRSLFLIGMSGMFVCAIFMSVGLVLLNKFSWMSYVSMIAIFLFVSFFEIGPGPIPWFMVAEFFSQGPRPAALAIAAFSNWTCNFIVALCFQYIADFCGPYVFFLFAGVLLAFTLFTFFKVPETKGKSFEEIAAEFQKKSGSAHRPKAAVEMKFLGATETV
# B1: 6F12 #33 (antibody, V domains shown)
# VH: AVTLDESGGGLQTPGGALSLVCKASGFTFSDHAIFWVRQAPDKGLEFVAAISSGTGSWTAYATVVKGRATISRDNGQSTVRLQLNNLRAADTATYYCAKGAGSACCYAGSIDAWGHGTEVIVSS
# VL: ALTQPSSVSANPGETVKITCSGGSSSSYYGWYQQKSPGSAPVTLIYYNDKRPSDIPSRFSGSKSGSTATLTITGVQVEDEAVYYCGTGDGSFAIFGAGTTLTVL
# B2: 2E5 #22 (antibody, V domains shown)
# VH: AVTLDESGGGLQTPGGALSLVCKASGFTFSTKGMGWVRQTPGKGLEWVAGISSMRRYTYYAPAVKGRATISRDNGQSTVRLQLSSLRAEDSGTYYCARDATYCSWTTSTCGWSGGTIDAWGHGTEVIVSS
# VL: ALTQPSSVSANLGGTVKITCSGGSGNYGWYQQKSPGSVPVTVIYSNDKRPSDIPSRFSGSGSGSTATLTITGVQVEDEAVYFCGSRDSSYVGLFGAGTTLTVL
# Columns and labels:
# SLC2A1 pseudotyped VLPs [1] = target: T1, SLC2A1 pseudotyped VLPs; assay: ELISA
# [2] = target: T2, HEK-293-ALL cells transfected with human SLC2A1; assay: 2-Deoxyglucose uptake assay (Glucose Uptake-Glo); assay type: cell-based; conditions: 2-hour incubation, 0.35 nM to 6.89 μM, 1 mM 2DG for 20 min, FIG. 4
# Experimental: To evaluate if the described anti-SLC2A1 antibodies inhibit glucose uptake, a commercial Glucose Uptake-Glo Assay kit (Promega) was utilized according to manufacturer's instructions. In short, HEK-293-ALL cells were transfected with human SLC2A1 expression plasmid and were incubated at 37° C. overnight in the presence of 5% CO2. Cells were washed with 0.5% BSA PBS twice and 7000 cells were plated per well into white clear bottom 96-well plates in 0.5% BSA PBS in the presence of 0.35 nM to 6.89 μM anti-SLC2A1 antibodies or glucose uptake inhibitor BAY-876 (CaymanChem). Cells were incubated for 2 hours at room temperature. Glucose uptake was initiated by the addition of 1 mM 2-deoxyglucose (2DG) and was allowed to proceed for 20 min at 37° C. in the presence of 5% CO2. After adding STOP and neutralization reagents included in the kit, luminescence was measured using GloMax Explorer microplate reader (Promega). Nonspecific luminescence was measured in lysates from cells without (2DG) being added. Data was normalized to nonspecific luminescence and to the average value of luminescence in the presence of no inhibitors.
# SLC2A1 pseudotyped VLPs [3] = target: T3, SLC2A1 pseudotyped VLPs; assay: ELISA-based SLC2A1 VLP binding assay; conditions: 5 μg/mL VLP coating, FIG. 1
# Experimental: (§1) An ELISA-based VLP binding assay was carried out to compare the EC50 values of antibody clones (FIG. 1). Similarly, ELISA based VLP binding assay was performed to compare the binding of the antibodies to different glucose transporters (FIG. 3). MaxiSorp™ high-capacity binding ELISA plate (Thermo Fisher Scientific, US) were coated with 5 μg/mL SLC2A1, SLC2A2, SLC2A3, SLC2A4 pseudotyped VLPs or MOCK VLPs in PBS overnight. The plate was washed and blocked for 1 h with 0.05% Tween 20, 2% BSA in PBS. Serial dilutions of antibodies were incubated on a washed plate for 1 hour, followed by a 1-hour incubation with goat anti-human IgG horse radish peroxidase (HRP) conjugated (Invitrogen) antibody. TMB (3,3′,5,5′-Tetramethylbenzidine) Solution VII (Biopanda Diagnostics) was used as a substrate for HRP and 0.5 M H2SO4 was used as stop solution. After every step, the wells were washed with 0.05% Tween 20, 0.1% Proclin 300 PBS solution. Absorption at 450 nm was measured with Thermo Scientific™ Multiskan™ FC Microplate Photometer. Exemplary wise used antibodies 1G2 #9, 2A2 #12, 2E5 #22, 5G5 #30, 6F12 #33, 7C3 #39 all bound SLC2A1 VLPs with low nanomolar EC50 values (FIG. 1).
# MCF7 breast cancer cells = assay: Cell proliferation inhibition assay (Incucyte), MCF7; assay type: cell-based; conditions: for MCF7 cell growth in combination with phenformin: co-treatment with phenformin, FIGS. 7 and 9
# Experimental: Incucyte S3 Live cell analysis instrument and Cell-by-Cell analysis software module (Sartorius) were used to evaluate the effect of anti-SLC2A1 antibodies on cancer cell proliferation label-free (FIGS. 5-11). MCF7, PC3 or PANC1 or MIAPACA2 cells were plated on flat bottom tissue culture 96-well plate in […] medium (Ximbio) supplemented with 2.5% FBS. Cells were incubated overnight and 0.02 nM to 13 μM anti-SLC2A1 antibodies, anti-HEL isotype control, PBS or BAY-876 were added to the cells alone or in combination with metformin (CaymanChem), phenformin (Sigma Aldrich) or IACS-010759 (CaymanChem). Cell confluence or object count was measured for 24 to 96 hours with Incucyte S3 and normalized to timepoint 0 h or 4h. anti-SLC2A1 antibodies inhibit cancer cell proliferation alone and especially in combination with complex-I inhibitors metformin, phenformin and IACS-010759. Exemplary antibodies 1G2 #9, 2A2 #12, 2E5 #22, 5G5 #30, 6F12 #33, 7C3 #39 and R14 #54 were used in proliferation assays.
# SLC2A2 pseudotyped VLPs = target: T4, SLC2A2 pseudotyped VLPs; assay: ELISA-based VLP binding assay, SLC2A2; conditions: compared to MOCK VLPs, FIG. 3
# Experimental: as §1
Molecule,EC50 (SLC2A1 pseudotyped VLPs [1]),glucose (2-deoxyglucose) uptake [2],EC50 of binding to SLC2A1 VLPs (SLC2A1 pseudotyped VLPs [3]),"MCF7 cell growth in combination with IACS-010759 (MCF7 breast cancer cells; co-treatment with IACS-010759, FIG. 8)","MCF7 cell growth in combination with metformin (MCF7 breast cancer cells; co-treatment with metformin, FIG. 6)",MCF7 cell growth in combination with phenformin (MCF7 breast cancer cells),binding to SLC2A2 VLPs (SLC2A2 pseudotyped VLPs),"MCF7 cell growth (confluence), single agent (MCF7 breast cancer cells; alone, Incucyte)"
B1,0.6 nM,strong concentration dependent decrease,low nanomolar,drastically inhibited,drastically inhibited,completely inhibit; also recorded: drastically inhibited; also recorded: most potent growth inhibitors,did not bind,
B2,0.5 nM,strong concentration dependent decrease,low nanomolar,,,completely inhibit; also recorded: most potent growth inhibitors,did not bind; also recorded: Some binding,only a modest inhibition
